Measured values published in article PMC5677370, “Structure-based nuclear import mechanism of histones H3 and H4 mediated by Kap123” (eLife, 2017).

What was measured:
MBP-tagged Kap123 = experiment: amylose affinity pull-down competition assay; details: pre-assembled MBP-Kap123 and H3 1-59-Sumo, value at 0X set to 1.0, read off a plot
[1] = target: full-length Kluyveromyces lactis (Kl) Kap123, wild type (Kluyveromyces lactis); experiment: SPR; wild-type Kl Kap123 immobilised on a CM5 chip (10 mM acetate pH 4.0); wild-type or mutant H3 or H4 peptides injected at 30 μl/min in binding buffer (10 mM HEPES, 150 mM NaCl); 7°C

Chain of MBP-tagged Kap123 (chain, as listed by the source): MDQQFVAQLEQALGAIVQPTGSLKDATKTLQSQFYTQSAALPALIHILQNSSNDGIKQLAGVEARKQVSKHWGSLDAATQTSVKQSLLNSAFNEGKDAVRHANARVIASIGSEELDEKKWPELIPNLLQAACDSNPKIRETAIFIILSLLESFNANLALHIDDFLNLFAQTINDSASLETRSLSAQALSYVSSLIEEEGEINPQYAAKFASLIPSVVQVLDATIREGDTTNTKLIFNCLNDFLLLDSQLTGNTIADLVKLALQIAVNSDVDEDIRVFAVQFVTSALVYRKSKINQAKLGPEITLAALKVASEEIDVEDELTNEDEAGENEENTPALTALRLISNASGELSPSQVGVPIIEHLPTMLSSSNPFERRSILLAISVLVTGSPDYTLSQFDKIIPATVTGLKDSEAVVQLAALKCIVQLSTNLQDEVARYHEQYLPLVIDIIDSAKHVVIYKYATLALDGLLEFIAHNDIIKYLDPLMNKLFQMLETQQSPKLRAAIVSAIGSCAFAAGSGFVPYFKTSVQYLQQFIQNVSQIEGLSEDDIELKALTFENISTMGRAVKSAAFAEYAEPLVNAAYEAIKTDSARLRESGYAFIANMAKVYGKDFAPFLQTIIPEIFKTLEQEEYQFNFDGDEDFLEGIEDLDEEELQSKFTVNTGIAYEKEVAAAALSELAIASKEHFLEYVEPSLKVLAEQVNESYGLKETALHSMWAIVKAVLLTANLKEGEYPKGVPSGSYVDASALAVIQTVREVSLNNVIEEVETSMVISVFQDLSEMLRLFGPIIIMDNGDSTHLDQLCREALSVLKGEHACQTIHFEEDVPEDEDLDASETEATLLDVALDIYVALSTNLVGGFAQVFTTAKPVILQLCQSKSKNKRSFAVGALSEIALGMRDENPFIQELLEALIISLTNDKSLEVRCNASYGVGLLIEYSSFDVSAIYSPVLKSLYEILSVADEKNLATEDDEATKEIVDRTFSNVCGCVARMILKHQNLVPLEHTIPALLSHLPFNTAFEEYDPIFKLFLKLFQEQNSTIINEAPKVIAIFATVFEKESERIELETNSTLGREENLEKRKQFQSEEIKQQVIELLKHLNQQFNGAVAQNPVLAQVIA

Substance	other: relative intensity of H3 1-59-Sumo remaining bound to Kap123 after competition (MBP-tagged Kap123; competitor at 1X, parent: est. 0.88)	other: relative intensity of H3 1-59-Sumo remaining bound to Kap123 after competition (MBP-tagged Kap123; competitor at 2X, parent: est. 0.67)	other: relative intensity of H3 1-59-Sumo remaining bound to Kap123 after competition (MBP-tagged Kap123; competitor at 5X, parent: est. 0.32)	other: relative intensity of H3 1-59-Sumo remaining bound to Kap123 after competition (MBP-tagged Kap123; competitor at 10X, parent: est. 0.13)	fold affinity relative to H4-NLS [1] [fold]
C-terminal Sumo-tagged histone H4_(1–48), P02309 K5Q; K8Q; K12Q	0.99	0.99	0.94	0.96	
wild-type H3_(1–35)-NLS peptide (injected as analyte) (from UniProt P61830 2-36)					5
